Test results from article PMC9481577, “Structures reveal a key mechanism of WAVE regulatory complex activation by Rac1 GTPase” (Nature Communications, 2022).

Molecular target: T1, HSPC300 (subunit of the WRC) (human, UniProt Q8WUW1 1-75)
T1 construct: HSPC300, human, full length; source: E. coli, purified within the WRC
T1 sequence (looked up): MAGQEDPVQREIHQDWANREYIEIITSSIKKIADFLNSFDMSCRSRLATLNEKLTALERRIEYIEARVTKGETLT
Experiment: cryo-EM structure; WRC^apo at 1.2 µM in 10 mM HEPES-KOH pH 7.0, 50 mM KCl, 1 mM MgCl2, 1 mM DTT, 5% (v/v) glycerol; 3.0 Å
Conditions: both partners purified

binding result: binds
B1: WAVE1(1-230)-(GGS)6-WCA(485-559) (subunit of the WRC) (domain or fragment, human)
chain: MPLVKRNIDPRHLCHTALPRGIKNELECVTNISLANIIRQLSSLSKYAEDIFGELFNEAHSFSFRVNSLQERVDRLSVSVTQLDPKEEELSLQDITMRKAFRSSTIQDQQLFDRKTLPIPLQETYDVCEQPPPLNILTPYRDDGKEGLKFYTNPSYFFDLWKEKMLQDTEDKRKEKRKQKQKNLDRPHEPEKVPRAPHDRRREWQKLAQGPELAEDDANLLHKHIEVANGGGSGGSGGSGGSGGSGGSKRHPSTLPVISDARSVLLEAIRKGIQLRKVEEQREQEAKHERIENDVATILSRRIAVEYSDSEDDSEFDEVDWLE
notes: WAVE1, human, residues 1-230; (GGS)6 linker, written out from the printed formula; WAVE1, human, WCA, residues 485-559; source: E. coli, purified within the WRC
